Test results: patent publication US20060263802A1 (CRUCELL HOLLAND B V, published 2006)

Tests used:
Assay in all cases: PEPSCAN ELISA, looped peptide, antibody 10 µg/ml
[1] = target: looped/cyclic peptide … (rabies virus strain ERA)
[2] = target: looped/cyclic peptide … (rabies virus strain ERA); remark: listed apart in the source
[3] = target: looped/cyclic peptide … (rabies virus strain ERA); remark: listed apart in the source
[4] = target: looped/cyclic peptide … (rabies virus strain ERA); remark: listed apart in the source
[5] = target: looped/cyclic peptide … (rabies virus strain ERA); remark: listed apart in the source
[6] = target: looped/cyclic peptide … (rabies virus strain ERA); remark: listed apart in the source
[7] = target: looped/cyclic peptide … (rabies virus strain ERA); remark: listed apart in the source
[8] = target: looped/cyclic peptide … (rabies virus strain ERA); remark: listed apart in the source
[9] = target: looped/cyclic peptide … (rabies virus strain ERA); remark: listed apart in the source
[10] = target: looped/cyclic peptide … (rabies virus strain ERA); remark: listed apart in the source
[11] = target: looped/cyclic peptide … (rabies virus strain ERA); remark: listed apart in the source
[12] = target: looped/cyclic peptide … (rabies virus strain ERA); remark: listed apart in the source
[13] = target: looped/cyclic peptide … (rabies virus strain ERA); remark: listed apart in the source
[14] = target: looped/cyclic peptide … (rabies virus strain ERA); remark: listed apart in the source
[15] = target: looped/cyclic peptide … (rabies virus strain ERA); remark: listed apart in the source
[16] = target: looped/cyclic peptide … (rabies virus strain ERA); remark: listed apart in the source
[17] = target: looped/cyclic peptide … (rabies virus strain ERA); remark: listed apart in the source
[18] = target: looped/cyclic peptide … (rabies virus strain ERA); remark: listed apart in the source
[19] = target: looped/cyclic peptide … (rabies virus strain ERA); remark: listed apart in the source
[20] = target: looped/cyclic peptide … (rabies virus strain ERA); remark: listed apart in the source
[21] = target: looped/cyclic peptide … (rabies virus strain ERA); remark: listed apart in the source
[22] = target: looped/cyclic peptide … (rabies virus strain ERA); remark: listed apart in the source
[23] = target: looped/cyclic peptide … (rabies virus strain ERA); remark: listed apart in the source
[24] = target: looped/cyclic peptide … (rabies virus strain ERA); remark: listed apart in the source
[25] = target: looped/cyclic peptide … (rabies virus strain ERA); remark: listed apart in the source
[26] = target: looped/cyclic peptide … (rabies virus strain ERA); remark: listed apart in the source
[27] = target: looped/cyclic peptide … (rabies virus strain ERA); remark: listed apart in the source
[28] = target: looped/cyclic peptide … (rabies virus strain ERA); remark: listed apart in the source
[29] = target: looped/cyclic peptide … (rabies virus strain ERA); remark: listed apart in the source
[30] = target: looped/cyclic peptide … (rabies virus strain ERA); remark: listed apart in the source
[31] = target: looped/cyclic peptide … (rabies virus strain ERA); remark: listed apart in the source
[32] = target: looped/cyclic peptide … (rabies virus strain ERA); remark: listed apart in the source
[33] = target: looped/cyclic peptide … (rabies virus strain ERA); remark: listed apart in the source
[34] = target: looped/cyclic peptide … (rabies virus strain ERA); remark: listed apart in the source
[35] = target: looped/cyclic peptide … (rabies virus strain ERA); remark: listed apart in the source
[36] = target: looped/cyclic peptide … (rabies virus strain ERA); remark: listed apart in the source
[37] = target: looped/cyclic peptide … (rabies virus strain ERA); remark: listed apart in the source
[38] = target: looped/cyclic peptide … (rabies virus strain ERA); remark: listed apart in the source
[39] = target: looped/cyclic peptide … (rabies virus strain ERA); remark: listed apart in the source
[40] = target: looped/cyclic peptide … (rabies virus strain ERA); remark: listed apart in the source
[41] = target: looped/cyclic peptide … (rabies virus strain ERA); remark: listed apart in the source
[42] = target: looped/cyclic peptide … (rabies virus strain ERA); remark: listed apart in the source
[43] = target: looped/cyclic peptide … (rabies virus strain ERA); remark: listed apart in the source
[44] = target: looped/cyclic peptide … (rabies virus strain ERA); remark: listed apart in the source
[45] = target: looped/cyclic peptide … (rabies virus strain ERA); remark: listed apart in the source
[46] = target: looped/cyclic peptide … (rabies virus strain ERA); remark: listed apart in the source
[47] = target: looped/cyclic peptide … (rabies virus strain ERA); remark: listed apart in the source
[48] = target: looped/cyclic peptide … (rabies virus strain ERA); remark: listed apart in the source
[49] = target: looped/cyclic peptide … (rabies virus strain ERA); remark: listed apart in the source
[50] = target: looped/cyclic peptide … (rabies virus strain ERA); remark: listed apart in the source
[51] = target: looped/cyclic peptide … (rabies virus strain ERA); remark: listed apart in the source
[52] = target: looped/cyclic peptide … (rabies virus strain ERA); remark: listed apart in the source
[53] = target: looped/cyclic peptide … (rabies virus strain ERA); remark: listed apart in the source
[54] = target: looped/cyclic peptide … (rabies virus strain ERA); remark: listed apart in the source
[55] = target: looped/cyclic peptide … (rabies virus strain ERA); remark: listed apart in the source
[56] = target: looped/cyclic peptide DIHHLSCPNNLVVED (rabies virus strain ERA)
[57] = target: looped/cyclic peptide … (rabies virus strain ERA); remark: listed apart in the source
[58] = target: looped/cyclic peptide … (rabies virus strain ERA); remark: listed apart in the source
[59] = target: looped/cyclic peptide … (rabies virus strain ERA); remark: listed apart in the source
[60] = target: looped/cyclic peptide … (rabies virus strain ERA); remark: listed apart in the source
[61] = target: looped/cyclic peptide … (rabies virus strain ERA); remark: listed apart in the source
[62] = target: looped/cyclic peptide … (rabies virus strain ERA); remark: listed apart in the source
[63] = target: looped/cyclic peptide … (rabies virus strain ERA); remark: listed apart in the source
[64] = target: looped/cyclic peptide … (rabies virus strain ERA); remark: listed apart in the source
[65] = target: looped/cyclic peptide […] (rabies virus strain ERA)
[66] = target: looped/cyclic peptide … (rabies virus strain ERA); remark: listed apart in the source
[67] = target: looped/cyclic peptide … (rabies virus strain ERA); remark: listed apart in the source
[68] = target: looped/cyclic peptide … (rabies virus strain ERA); remark: listed apart in the source
[69] = target: looped/cyclic peptide … (rabies virus strain ERA); remark: listed apart in the source
[70] = target: looped/cyclic peptide … (rabies virus strain ERA); remark: listed apart in the source
[71] = target: looped/cyclic peptide … (rabies virus strain ERA); remark: listed apart in the source
[72] = target: looped/cyclic peptide … (rabies virus strain ERA); remark: listed apart in the source
[73] = target: looped/cyclic peptide … (rabies virus strain ERA); remark: listed apart in the source
[74] = target: looped/cyclic peptide … (rabies virus strain ERA); remark: listed apart in the source
[75] = target: looped/cyclic peptide … (rabies virus strain ERA); remark: listed apart in the source

B1: human monoclonal antibody CRJB (antibody, V domains shown)
VH: QITLKETGPTLVKPTQTLTLTCTFSGFSLSTSGVGVGWIRQPPGKALEWVTLIYWDDDKRYSPSLENRVTIRKDTSKNQVALTMTNMDPLDTGTYYCAHRQHISSFPWFDSWGQGTLVTVSS
VL: SYVLTQPPSVSVAPGKTARINCGGNNIEYRSVHWYQQKSGQAPVAVIYDNSDRPSGIPERFSGSKSGNTATLTISRVEAGDEADYYCQVWDISSDVVFGGGTKLTVLG
With B1 the OD value [1] was 78 OD, the OD value [2] was 90 OD and the OD value [3] was 49 OD. The OD value [4] was 71 OD, the OD value [5] was 85 OD and the OD value [6] was 73 OD. It also gave an OD value [7] of 92 OD, an OD value [8] of 92 OD and an OD value [9] of 70 OD. For the same binder, the OD value [10] was 75 OD, the OD value [11] was 90 OD and the OD value [12] was 92 OD. It also gave an OD value [13] of 77 OD, an OD value [14] of 90 OD and an OD value [15] of 83 OD. For the same binder, the OD value [16] was 79 OD, the OD value [17] was 65 OD and the OD value [18] was 64 OD. For the same binder, the OD value [19] was 55 OD, the OD value [20] was 86 OD and the OD value [21] was 71 OD. It also gave an OD value [22] of 92 OD, an OD value [23] of 111 OD and an OD value [24] of 72 OD. The OD value [25] was 93 OD, the OD value [26] was 90 OD and the OD value [27] was 61 OD. The OD value [28] was 62 OD, the OD value [29] was 55 OD and the OD value [30] was 70 OD. For the same binder, the OD value [31] was 64 OD, the OD value [32] was 77 OD and the OD value [33] was 111 OD. The OD value [34] was 93 OD, the OD value [35] was 85 OD and the OD value [36] was 72 OD. For the same binder, the OD value [37] was 75 OD, the OD value [38] was 69 OD and the OD value [39] was 74 OD. It also gave an OD value [40] of 79 OD, an OD value [41] of 59 OD and an OD value [42] of 96 OD. It also gave an OD value [43] of 63 OD, an OD value [44] of 54 OD and an OD value [45] of 98 OD. For the same binder, the OD value [46] was 71 OD, the OD value [47] was 77 OD and the OD value [48] was 82 OD. The OD value [49] was 76 OD, the OD value [50] was 93 OD and the OD value [51] was 66 OD. For the same binder, the OD value [52] was 74 OD, the OD value [53] was 79 OD and the OD value [54] was 64 OD. For the same binder, the OD value [55] was 112 OD, the OD value [56] was 48 OD and the OD value [57] was 86 OD. For the same binder, the OD value [58] was 71 OD, the OD value [59] was 93 OD and the OD value [60] was 57 OD. It also gave an OD value [61] of 85 OD, an OD value [62] of 77 OD and an OD value [63] of 50 OD. For the same binder, the OD value [64] was 102 OD, the OD value [65] was 71 OD and the OD value [66] was 69 OD. It also gave an OD value [67] of 65 OD, an OD value [68] of 83 OD and an OD value [69] of 99 OD. The OD value [70] was 72 OD, the OD value [71] was 80 OD and the OD value [72] was 49 OD. The OD value [73] was 82 OD, the OD value [74] was 78 OD and the OD value [75] was 82 OD.
